In patent US20180064666A1:

Target: GST-Pin1 (UniProt Q13526)
Test: fluorescence polarization; labelled pTide probe titrated with GST-Pin1 (the concentration is that of GST-Pin1)

GST-Pin1, sequence (Q13526 whole entry): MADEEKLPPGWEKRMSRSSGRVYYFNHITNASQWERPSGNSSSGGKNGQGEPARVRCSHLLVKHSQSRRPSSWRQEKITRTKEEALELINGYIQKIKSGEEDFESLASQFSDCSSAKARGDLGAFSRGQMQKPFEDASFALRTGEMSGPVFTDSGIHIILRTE

| EC50 (read off the curve) | Substance |
| --- | --- |
| 0.5 µM | pTide-HiLyte™ Fluor 488 (N-terminal HiLyte™ Fluor 488-labeled pTide, Bth-D-phos.Thr-Pip-Nal) (peptide) |
| 0.5 µM | TAMRA-conjugated pTide (N-terminal TAMRA-labeled pTide, Bth-D-phos.Thr-Pip-Nal) (peptide) |
